# Values quoted from earlier work as cited in article PMC7911750.
# Target: NKp30-Ig ECD (Homo sapiens) (UniProt O14931)
# Sequence of UniProt O14931 (O14931 19-135): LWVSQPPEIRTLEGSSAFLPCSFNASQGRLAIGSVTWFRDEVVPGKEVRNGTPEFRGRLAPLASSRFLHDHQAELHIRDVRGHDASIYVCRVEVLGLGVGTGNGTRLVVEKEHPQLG
substance,measurement,value
pp65 (from UniProt P06725),Kd,10 nM
